First the molecules themselves.
B1: TASL 1-13 M1A (peptide)
chain: ALSEGYLYRIAYL
B2: TASL 1-13 R9A (peptide)
chain: MLSEGYLYAIAYL
B3: TASL 4-13 (peptide)
chain: EGYLYRIAYL
B4: TASL 1-13 L2A (peptide)
chain: MASEGYLYRIAYL
B5: TASL 1-13 L7A (peptide)
chain: MLSEGYAYRIAYL
B6: TASL 1-13 S3A (peptide)
chain: MLAEGYLYRIAYL
B7: TASL 1-12 (peptide)
chain: MLSEGYLYRIAY
B8: TASL 1-13-GSGS (peptide)
chain: MLSEGYLYRIAYLGSGS
B9: TASL 1-13-GS (peptide)
chain: MLSEGYLYRIAYLGS
B10: TASL 1-13 Y6A (peptide)
chain: MLSEGALYRIAYL
B11: TASL 1-13 Y8A (peptide)
chain: MLSEGYLARIAYL
B12: TASL 3-13 (peptide)
chain: SEGYLYRIAYL
B13: TASL 1-13-GSGSGS (peptide)
chain: MLSEGYLYRIAYLGSGSGS
B14: TASL 1-14 C14A (peptide)
chain: MLSEGYLYRIAYLA
B15: TASL 2-13 (peptide)
chain: LSEGYLYRIAYL
B16: fluorescently labeled TASL_(1-13) peptide (peptide)
chain: MLSEGYLYRIAYL-{PEG-Cy5}
modifications: reading uncertain
B17: TASL peptide with a length of 17 residues (peptide)
chain: MLSEGYLYRIAYLCEDS
B18: TASL peptide with a length of 21 residues (peptide)
chain: MLSEGYLYRIAYLCEDSELCT
B19: TASL peptide with a length of 15 residues (peptide)
chain: MLSEGYLYRIAYLCE

No end group written: not given here. PEG = not defined here; Cy5 = Cy5 dye

For one assay, the target named is chicken PHT1 (purified, wild type) (chicken).
chicken PHT1 (purified, wild type) (chicken), sequence (chain, as listed by the source): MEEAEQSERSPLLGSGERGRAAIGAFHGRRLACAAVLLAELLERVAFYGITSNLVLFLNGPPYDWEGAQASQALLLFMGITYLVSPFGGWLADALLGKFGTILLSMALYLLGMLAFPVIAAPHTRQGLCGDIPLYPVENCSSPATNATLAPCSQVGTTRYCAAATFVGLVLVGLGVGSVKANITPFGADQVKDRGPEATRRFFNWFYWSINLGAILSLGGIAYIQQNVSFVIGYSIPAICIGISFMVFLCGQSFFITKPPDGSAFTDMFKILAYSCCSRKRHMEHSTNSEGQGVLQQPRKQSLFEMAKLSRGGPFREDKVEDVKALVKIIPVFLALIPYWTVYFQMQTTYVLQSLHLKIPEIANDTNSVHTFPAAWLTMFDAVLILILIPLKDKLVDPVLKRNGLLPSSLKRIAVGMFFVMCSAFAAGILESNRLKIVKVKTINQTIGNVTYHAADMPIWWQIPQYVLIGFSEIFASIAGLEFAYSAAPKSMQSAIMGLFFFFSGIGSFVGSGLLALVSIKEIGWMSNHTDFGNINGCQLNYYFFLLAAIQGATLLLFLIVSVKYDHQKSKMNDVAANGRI
Assay: not given
For the molecule B1, the Kd amounted to 15400 nM.
B2 had a Kd of 3360 nM. Against the preceding molecule, the Kd is about 4.6-fold lower.
In the case of B3, the Kd amounted to 10500 nM.
On the same count and under the same terms, next, B4: 7280 nM; B5: 310 nM; B6: 690 nM.
In turn, B7 yielded a Kd of 1740 nM.
Still for that read-out and setting: the result for B8 reads 580 nM; that for B9, 710 nM.
The same measure, in the same setting: next, B10: 1530 nM.
Take B11: the Kd was 2120 nM.
B12 returned an equilibrium dissociation constant (Kd) of 7630 nM.
On the same count and under the same terms, the result for B13 reads 410 nM; that for B14, 400 nM; that for B15, 9110 nM.

A further assay shares this target. In words: MST.
For B16, binding was characterised by a dissociation constant (Kd) of 361 nM.

Another assay shares this target.
Assay: not given
The source holds these as a separate data set.
In turn, B17 displayed a Kd of 1350 nM. This lies in the single-digit micromolar range.
On to B18, for which the Kd amounted to 4050 nM.
Same read-out and setting: next, B19: 1760 nM.

Usually Kd stands for the free concentration of one partner at which half of the binding sites on the other are occupied at equilibrium, for simple one-to-one binding. Higher therefore signals a looser complex.

(Values after publication PMC10502012 (2023).)
